In patent publication US20250002926A1 one finds expression of CLV3 in homozygous Setaria MoonTag lines against wild-type ME34 (RT-qPCR) data, which are given here for one substance.

The target in this test is dCas9-24XGP41 (Streptococcus pyogenes serotype M1) (UniProt Q99ZW2). The test can be described thus: cell-based or functional assay.

In turn, “NbGP41-sfGFP-VP64-GB1 (from UniProt P06654 228-282) (VHH)” gave an expression of CLV3 in homozygous Setaria MoonTag lines against wild-type ME34 (RT-qPCR) of 100 fold.
